We go through two molecules from patent US20020102617A1 (published 2002).

For the assay, the target named is T1, Cy3-conjugated IκBα (UniProt P25963 1-317, limits assumed, Cy3 label (monofunctional reactive dye; site not stated)).
T1 construct: Used in solution at 0.1 ug/ml; also called Cy3-IκBα
T1 sequence (looked up): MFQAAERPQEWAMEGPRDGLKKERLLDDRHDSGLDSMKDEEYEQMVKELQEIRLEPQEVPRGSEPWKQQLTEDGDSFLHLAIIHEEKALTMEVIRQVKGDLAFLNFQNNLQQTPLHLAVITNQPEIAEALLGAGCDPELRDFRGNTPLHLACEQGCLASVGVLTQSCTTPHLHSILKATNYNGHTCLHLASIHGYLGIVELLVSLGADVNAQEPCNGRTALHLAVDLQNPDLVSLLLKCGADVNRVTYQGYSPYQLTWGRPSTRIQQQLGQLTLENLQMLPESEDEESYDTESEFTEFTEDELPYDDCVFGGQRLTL
Briefly: protein microarray on aldehyde glass slide, fluorescent probe in solution (FIG. 1B).

B1: Protein G (other, UniProt P19909 303-497, looked up)
chain: TYKLILNGKTLKGETTTEAVDAATAEKVFKQYANDNGVDGEWTYDDATKTFTVTEKPEVIDASELTPAVTTYKLVINGKTLKGETTTEAVDAATAEKVFKQYANDNGVDGEWTYDDATKTFTVTEKPEVIDASELTPAVTTYKLVINGKTLKGETTTKAVDAETAEKAFKQYANDNGVDGVWTYDDATKTFTVTE
notes: Spotted on aldehyde (SMA) glass slides at 100 ug/ml; The commercial product may be a truncated recombinant form
With B1, the binding result was “no binding (tested: 0.1 µg/ml)”.

B2: GST-FRB (other)
chain: ELIRVAILWHEMWHEGLEEASRLYFGERNVKGMFEVLEPLHAMMERGPQTLKETSFNQAYGRDLMEAQEWCRKYMKSGNVKDLTQAWDLYYHVFRRISKQ
notes: domain: FRB domain of FRAP; Produced recombinantly in E. coli; The text calls the spotted protein both 'GST-FRB' and 'FRB'; also called FRB domain of FRAP; not shown: GST (glutathione S-transferase) fusion partner
On to B2, for which the binding result is reported as “no binding (tested: 0.1 µg/ml)”.
